The record followed here is patent publication US20220119492A1.

This test deals with T1, human IL-2Rβ (CD122 protein, Fc Tag) (27-239) (human), P14784.
T1 chain: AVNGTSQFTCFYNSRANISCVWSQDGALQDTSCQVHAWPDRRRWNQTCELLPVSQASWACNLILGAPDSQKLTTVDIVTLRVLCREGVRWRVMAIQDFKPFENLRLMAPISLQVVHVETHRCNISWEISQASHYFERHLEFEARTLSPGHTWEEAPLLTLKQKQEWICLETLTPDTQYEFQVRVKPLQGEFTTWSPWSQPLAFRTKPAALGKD
Description: competitive binding ELISA (Example 28).

A value given as a limit tells only on which side of the number the result lay.

Molecule CCYQAMVGDLCDFC (modifications not checked) [IL-2Rβ ligand SEQ ID NO: 83] had a 50% inhibitory concentration (IC50) of less than 10 µM.
